The text below walks through data of the supplement of paper PMC7877785.

A short description of this series: self-splicing fitness, log relative to wild type (ln ratio); higher = more splicing; Tetrahymena group I intron in knt gene, E. coli kanamycin selection, DiMSum; sequences stand for … in CUCUCU…GGAGGGAAAAGUUAUCAGGCAUGCACCUGGUAGCUAGUCUUUAAACCAAUAGAUUGCAUCGGUUUAAAAGGCAAGACCGUCAAAUUGCGGGAAAGGGGUCAACAGCCGUUCAGUACCAAGUCUCAGGGGAAACUUUGAGAUGGCCUUGCAAAGGGUAUGGUAAUAAGCUGACGGACAUGGUCCUAACCACGCAGCCAAGUCCUAAGUCAACAGAUCUUCUGUUGAUAUGGAUGCAGUUCACAGACUAAAUGUCGGUCGGGGAAGAUGUAUUCUUCUCAUAAGAUAUAGUCGGACCUCUCCUUAAUGGGAGCUAGCGGAUGAAGUGAUGCAACACUGGAGCCGCUGGGAACUAAUUUGUAUGCGAAAGUAUAUUGAUUAGUUUUGGAGUACUCGUGGUCG
The gist of the method:
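Library with all eight P1ex-region intron nucleotides randomised, intron inside the knt kanamycin-resistance gene on pET-22b(+), in E. coli BL21(DE3). Cells grew overnight at 37°C or 30°C on LB agar with or without 25 μg/mL kanamycin (plus 100 μg/mL carbenicillin, 50 μM IPTG, 0.2% rhamnose), in six replicate transformations. Pooled colonies were amplicon-sequenced on Illumina HiSeq 2500. DiMSum fitness is the error-weighted combination of wild-type-normalised replicate fold changes, kanamycin versus none.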

± gives the uncertainty stated by the source.

For the sequence GGUUAGCAAUAUUACGGCUG, the “self-splicing fitness (ln)” value (30 °C) was -0.585 ± 0.16 and the “self-splicing fitness (ln)” value (37 °C) was found to be 0.214 ± 0.28. The like results for CAUAAGCAAUAUUACGACCG were, in that order, 0.135 ± 0.085 and 0.553 ± 0.14. As to CCGCAGCAAUAUUACGACUG, the “self-splicing fitness (ln)” value (30 °C) was -3.17 ± 0.14 and the “self-splicing fitness (ln)” value (37 °C) is -1.71 ± 0.13. Take CCUUAGCAAUAUUACGGUUC: the “self-splicing fitness (ln)” value by setting is: (30 °C) -2.91 ± 0.18; (37 °C) -2.72 ± 0.39. In the case of UCCAAGCAAUAUUACGAUAG, the “self-splicing fitness (ln)” value by setting is: (30 °C) -2.81 ± 0.13; (37 °C) -2.98 ± 0.21. For the sequence CUAGAGCAAUAUUACGAUAG, the “self-splicing fitness (ln)” value is -0.96 ± 0.1 (30 °C) and 0.0398 ± 0.18 (37 °C). With UCAAAGCAAUAUUACGUCCC, the “self-splicing fitness (ln)” value runs as follows: (30 °C) -0.356 ± 0.2; (37 °C) -1.14 ± 0.47.

As to AUGCAGCAAUAUUACGAUUU, the “self-splicing fitness (ln)” value runs as follows: (30 °C) -0.306 ± 0.058; (37 °C) -0.153 ± 0.074. The like results for CGAUAGCAAUAUUACGGGAG were, in that order, -2.86 ± 0.24 and -2.39 ± 0.24. In the case of CAACAGCAAUAUUACGGCAA, the “self-splicing fitness (ln)” value is -1.45 ± 0.13 (30 °C) and -1.28 ± 0.12 (37 °C). Consider CACGAGCAAUAUUACGCUUA, for which the “self-splicing fitness (ln)” value is -2.83 ± 0.32 (30 °C) and -0.611 ± 0.12 (37 °C).

With CACCAGCAAUAUUACGCACG, the “self-splicing fitness (ln)” value is, setting by setting: (30 °C) -0.655 ± 0.045; (37 °C) 0.0962 ± 0.062. CUUAAGCAAUAUUACGCUUG: the “self-splicing fitness (ln)” value was -4.19 ± 0.39 (30 °C) and -2.78 ± 0.31 (37 °C). Turning to UCUAAGCAAUAUUACGUGGA, the “self-splicing fitness (ln)” value by setting is: (30 °C) -2.82 ± 0.19; (37 °C) -3.51 ± 0.39. Consider ACCCAGCAAUAUUACGCUGG, for which the “self-splicing fitness (ln)” value runs as follows: (30 °C) -2.83 ± 0.14; (37 °C) -2.4 ± 0.18. For the sequence GCAAAGCAAUAUUACGAUCC, the “self-splicing fitness (ln)” value was -0.0105 ± 0.12 (30 °C) and -0.518 ± 0.13 (37 °C). Regarding AGUCAGCAAUAUUACGACGA, the “self-splicing fitness (ln)” value (30 °C) was -0.25 ± 0.07 and the “self-splicing fitness (ln)” value (37 °C) was -0.283 ± 0.11. The like results for GGUUAGCAAUAUUACGGCCA were, in that order, -0.0519 ± 0.23 and 0.0427 ± 0.2. Regarding ACCGAGCAAUAUUACGGCCC, the “self-splicing fitness (ln)” value was -2.37 ± 0.21 (30 °C) and -1.89 ± 0.29 (37 °C). Turning to UAGAAGCAAUAUUACGCCGU, the “self-splicing fitness (ln)” value by setting is: (30 °C) -2.41 ± 0.23; (37 °C) -2.68 ± 0.36. Regarding CUCAAGCAAUAUUACGGUCA, the “self-splicing fitness (ln)” value runs as follows: (30 °C) -3.19 ± 0.2; (37 °C) -2.35 ± 0.2. On the same counts, the results for ACCCAGCAAUAUUACGAGGA are -0.706 ± 0.068 and -1.08 ± 0.077. For UCAGAGCAAUAUUACGACCA, the “self-splicing fitness (ln)” value (30 °C) was -2.73 ± 0.38 and the “self-splicing fitness (ln)” value (37 °C) was -2.63 ± 0.47. As for CCAAAGCAAUAUUACGCACU, the “self-splicing fitness (ln)” value reads like this: (30 °C) -2.09 ± 0.19; (37 °C) -2.75 ± 0.23.

Turning to UGGGAGCAAUAUUACGGGUA, the “self-splicing fitness (ln)” value is, setting by setting: (30 °C) -2.68 ± 0.32; (37 °C) -2.33 ± 0.37. On to CCCCAGCAAUAUUACGACGG, for which the “self-splicing fitness (ln)” value (30 °C) is -3.1 ± 0.17 and the “self-splicing fitness (ln)” value (37 °C) was -3.42 ± 0.3. On to ACAAAGCAAUAUUACGACCC, for which the “self-splicing fitness (ln)” value was -0.934 ± 0.16 (30 °C) and 0.532 ± 0.21 (37 °C).

Regarding CUAAAGCAAUAUUACGUGCG, the “self-splicing fitness (ln)” value (30 °C) is -0.674 ± 0.093 and the “self-splicing fitness (ln)” value (37 °C) is 0.0651 ± 0.12. In the case of AUCUAGCAAUAUUACGGUUG, the “self-splicing fitness (ln)” value reads like this: (30 °C) -2.66 ± 0.15; (37 °C) -2.45 ± 0.19. On the same counts, the results for GGCUAGCAAUAUUACGCGAA are -1.83 ± 0.085 and -1.27 ± 0.08.

For the sequence CCACAGCAAUAUUACGUGUA, the “self-splicing fitness (ln)” value reads like this: (30 °C) -3.23 ± 0.096; (37 °C) -1.63 ± 0.069. In the case of AGGUAGCAAUAUUACGCCGA, the “self-splicing fitness (ln)” value was -0.983 ± 0.019 (30 °C) and -0.334 ± 0.034 (37 °C). For the sequence UUAUAGCAAUAUUACGAGGG, the “self-splicing fitness (ln)” value was -3.47 ± 0.26 (30 °C) and -2.3 ± 0.27 (37 °C). Consider CUCAAGCAAUAUUACGAUCG, for which the “self-splicing fitness (ln)” value is, setting by setting: (30 °C) -1.26 ± 0.1; (37 °C) -0.0967 ± 0.13. On to ACUGAGCAAUAUUACGUUCU, for which the “self-splicing fitness (ln)” value runs as follows: (30 °C) -1.77 ± 0.14; (37 °C) -1.48 ± 0.12.

With CAGCAGCAAUAUUACGUAAC, the “self-splicing fitness (ln)” value by setting is: (30 °C) -4.17 ± 0.39; (37 °C) -2.88 ± 0.32.

As for GUCUAGCAAUAUUACGUUCG, the “self-splicing fitness (ln)” value was -0.604 ± 0.18 (30 °C) and -0.859 ± 0.17 (37 °C). For the sequence CCGUAGCAAUAUUACGAGUA, the “self-splicing fitness (ln)” value (37 °C) is -2.04 ± 0.22.
